Assay results as given in patent publication US20130078247A1 (Boehringer Ingelheim, published 2013).
Substitutions are numbered along the chain they refer to.

T1: human DLL1 (human, UniProt O00548 18-545, limits assumed)
T1 construct: also called hDLL1; rhDLL1
T1 sequence (looked up): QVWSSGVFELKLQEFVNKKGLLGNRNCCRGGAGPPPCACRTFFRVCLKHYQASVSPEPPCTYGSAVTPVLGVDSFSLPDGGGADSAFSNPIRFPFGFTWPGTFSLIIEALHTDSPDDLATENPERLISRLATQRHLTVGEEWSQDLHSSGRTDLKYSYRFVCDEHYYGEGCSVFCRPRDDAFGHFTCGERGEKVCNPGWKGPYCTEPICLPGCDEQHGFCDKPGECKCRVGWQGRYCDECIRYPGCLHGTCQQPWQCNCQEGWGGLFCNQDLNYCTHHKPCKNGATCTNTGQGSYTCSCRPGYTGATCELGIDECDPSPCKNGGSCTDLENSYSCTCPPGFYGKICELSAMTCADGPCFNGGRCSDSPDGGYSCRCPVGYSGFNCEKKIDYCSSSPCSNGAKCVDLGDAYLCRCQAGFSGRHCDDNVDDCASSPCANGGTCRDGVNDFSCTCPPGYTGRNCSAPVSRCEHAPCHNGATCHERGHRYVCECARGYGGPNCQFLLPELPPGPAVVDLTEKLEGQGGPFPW

B1: DLLBII28B06 (VHH)
VHH: EVQLVESGGGLVQAGGSLRLSCAASGSTFSTYAMGWYRQDPGNQRELVAAISSDGSTHYADSVKGRFTISRDNAKNTVYLQMNSLKPEDTAVYYCYAPVKVAGLEYDYWGQGTQVTVSS
notes: also called DLLBII28B6; not shown: C-terminal c-myc and His6 tags
B2: DLLBII33C05 (VHH)
VHH: EVQLVESGGGLVQAGGSLRLSCAASGFTLDNYVIGWFRQAPGKEREEVSCISSSGGSTDYLDSVKGRFTISRDNAKNTVYLQMNSLKPEDTAVYYCAADSLPCYYDKMVYDYWGQGTQVTVSS
notes: also called DLLBII33C5; not shown: C-terminal c-myc and His6 tags
B3: DLLBII19F04 (VHH)
VHH: EVQLVESGGGLVQAEGSLRLSCAASGSTFSTYAMAWYRQAPGKQRELVAGISFDGSTHYAESVKGRFTISRDDAKNTVSLQMNSLKPEDAAVYYCYSVHPSTGFGSWGQGTQVTVSS
notes: also called DLLBII19F4; not shown: C-terminal c-myc and His6 tags
B4: DLLBII17B03 (VHH)
VHH: EVQLVESGGGLVQPGGSLRLSCAASGFTFENYALGWFRQAPGKEREWVSCISSSDGTTYYADSVKGRFTISRDNVKNTVYLQMNRLKPEDTAIYYCALSLGSSWCAYDYWGQGTQVTVSS
notes: also called DLLBII17B3; not shown: C-terminal c-myc and His6 tags
B5: DLLBII19F12 (VHH)
VHH: EVQLVESGGGLVQAGGSLRLSCTASGSTFTSYAMGWYRQAPGKQRELVAAISSDDSTYYADCVKGRFTISRDNAKNTVYLQMNSLKPEDTAVYYCNAPHSDYDEEAPSDFGSWGQGTQVTVSS
notes: not shown: C-terminal c-myc and His6 tags
B6: DLLBII129H02 (VHH)
VHH: EVQLVESGGGLVQAGGSLRLSCAASGRTFSSYAMAWYRQAPGKEREYVAAIRWSGGTAYYADSVQGRFTISRDNAKNTVYLQMNSLKPEDTAVYYCANRAPDTRLRPYEYDYWGQGTQVTVSS
B7: DLLBII130E03 (VHH)
VHH: B6 VHH with R106E, Y112H
B8: DLLBII130B03 (VHH)
VHH: B6 VHH with R106A, E109L
notes: not shown: C-terminal c-myc tag and (His)6 tag
B9: DLLBII129H07 (VHH)
VHH: B6 VHH with R106E
notes: as for B8
B10: DLLBII130D06 (VHH)
VHH: B6 VHH with A23S, G56E, R106E, E109L, Y112H
B11: DLLBII130A05 (VHH)
VHH: B6 VHH with R106G, E109L, Y112H
B12: DLLBII129H04 (VHH)
VHH: B6 VHH with G8R, Y37F, R106E, E109L, Y112H
B13: DLLBII130B02 (VHH)
VHH: B6 VHH with Y37F, N84Y, R106A, E109L, Y112H
B14: DLLBII130B04 (VHH)
VHH: B6 VHH with Y37F, E109L, Y112H
B15: DLLBII130F06 (VHH)
VHH: B6 VHH with R106A
notes: as for B8
B16: DLLBII129H05 (VHH)
VHH: B6 VHH with Q39L, R106G, E109L
B17: DLLBII015 (VHH)
VHH: EVQLVESGGGLVQPGGSLRLSCAASGFTIGSYDMSWVRRSPGKGPEWVSAINSGGGSTYYADYVKGRFTISRDNAKNTLYLQMNSLKPEDTAVYYCAADRYIWARQGEYWGAYAYDYWGQGTQVTVSS
notes: as for B8
B18: DLLBII133A09 (VHH)
VHH: B17 VHH with I29F
notes: as for B8
B19: DLLBII136C07 (VHH)
VHH: B17 VHH with I29F, A50S, A114E
notes: as for B8
B20: DLLBII133G05 (VHH)
VHH: B17 VHH with I29F, A61T
notes: as for B8
B21: DLLBII6B11 (VHH)
VHH: EVQLVESEGGLVQAGGSLRLSCAASGSTFSSYAMGWYRQAPGKQRELVAVISNGGITNYPNSVKGRFTISRDNAKNTVYLQMNSLKPEDTAVYYCFYSGSYYYPTDVHEYDYWGQGTQVTVSS
notes: also called DLLBII06B11; not shown: C-terminal c-myc and His6 tags
B22: DLLBII7B05 (VHH)
VHH: EVQLVESGGGLVQAGGSLRLSCAASGFALDYYAVGWFRQAPGKEREGVSCISSRGGSTFYADSVKGRFTTSRNNAKNTVYLQMNSLKPEDTAVYYCAAHPLQNCCGGSAYASPEAVYEYWGQGTQVTVSS
notes: also called DLLBII7B5; DLLBII07B05; not shown: C-terminal c-myc and His6 tags
B23: DLLBII8C11 (VHH)
VHH: EVQLVESGGGLVQAGGSLRLSCAASGFTFDDYAIGWFRQAPGKEREGVSCISSHDRTTYYADSVKGRFTISSDNAKNTVYLQMNSLKPEDTAVYYCAADPLVCGYNDPRLADYWGQGTQVTVSS
notes: also called DLLBII08C11; not shown: C-terminal c-myc and His6 tags
B24: DLLBII5B11 (VHH)
VHH: EVQLVESGGGLVQPGGSLRLSCAISGFTLDLHVIGWLRQAPGKEREWVSCISSSDGSTYYADSVKGRFTISRDNAKNTVYLQMNSLKPEDTAVYYCAAPWDSWYCGIGNDYDYWGQGTQVTVSS
notes: also called DLLBII05B11; not shown: C-terminal c-myc and His6 tags
B25: DLLBII8A09 (VHH)
VHH: EVQLVESGGGLVQPGGSLRLSCAASGFTLDYYNIGWFRQAPGKEREWVSCINSSDGSTYYADSVKGRFTISRDNAKNTVYLQMNSLKPEDTAVYYCAAPFAYYSNLCGVNGYDYWGQGTQVTVSS
notes: also called DLLBII08A09; not shown: C-terminal c-myc and His6 tags

Each binder was assayed against T2, recombinant human DLL4 extracellular domain, C-terminally His-tagged (R&D Systems) (human, UniProt Q9NR61 25-522, biotinylated in the competition assays (sites not given)) (assay: periplasmic extract; hDLL4/hNotch1 AlphaScreen).
T2 construct: also called rhDLL4; hDLL4; not shown: C-terminal His tag
Protocol: To this mixture, the acceptor beads and the streptavidin donor beads are added and further incubated for 1 hour at room temperature. Fluorescence is measured by reading plates on the Envision Multilabel Plate reader (Perkin Elmer, Waltham, Mass., USA) using an excitation wavelength of 680 nm and an emission wavelength of 520 nm.

T2 sequence (Q9NR61 25-522): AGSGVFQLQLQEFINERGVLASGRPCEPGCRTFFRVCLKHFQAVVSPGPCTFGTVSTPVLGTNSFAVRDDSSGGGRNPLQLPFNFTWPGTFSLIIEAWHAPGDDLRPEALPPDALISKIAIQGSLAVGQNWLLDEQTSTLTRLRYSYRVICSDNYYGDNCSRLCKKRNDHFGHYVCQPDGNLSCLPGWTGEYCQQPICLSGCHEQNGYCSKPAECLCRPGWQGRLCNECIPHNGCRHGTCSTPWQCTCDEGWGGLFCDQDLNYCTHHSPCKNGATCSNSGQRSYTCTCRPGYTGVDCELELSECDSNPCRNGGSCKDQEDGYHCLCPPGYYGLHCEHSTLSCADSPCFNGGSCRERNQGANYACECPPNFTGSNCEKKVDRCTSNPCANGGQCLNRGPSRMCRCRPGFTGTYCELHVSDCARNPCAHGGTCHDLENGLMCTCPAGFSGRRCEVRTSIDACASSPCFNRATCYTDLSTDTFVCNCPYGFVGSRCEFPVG

| % inhibition | Binder |
| --- | --- |
| 54% | B1 |
| 75% | B2 |
| 95% | B3 |
| 77% | B4 |
| 98% | B5 |

These binders were tested against T3, recombinant mouse DLL4 (mouse, UniProt Q9JI71 27-532) (assay: ProteOn off-rate screen, periplasmic extract, mDLL4 on chip).
T3 construct: extracellular domain; also called rmDLL4; mDLL4; not shown: C-terminal His tag
Protocol: (§1) In a first cycle, amino acid substitutions are introduced randomly in both framework (FW) and complementary determining regions (CDR) using the error-prone PCR method. […] After a polish step, PCR products are inserted via unique restriction sites into a vector designed to facilitate phage display of the VHH library. […] No selections on murine DLL4 are included as (conservation of) cross-reactivity is assessed at the screening level. Individual mutants are produced as recombinant protein using an expression vector derived from pUC119, which contains the LacZ promoter, a resistance gene for ampicillin, a multiple cloning site and an ompA leader sequence (pAX50). E. coli TG1 cells are transformed with the expression vector library and plated on agar plates (LB+Amp+2% glucose). Single colonies are picked from the agar plates and grown in 1 mL 96-deep-well plates. VHH expression is induced by adding IPTG (1 mM). Periplasmic extracts (in a volume of ˜80 uL) are prepared according to standard methods and screened for binding to recombinant human and mouse DII4 in a ProteOn (BioRad, Hercules, Calif., USA) off-rate assay. […] Periplasmic extract of affinity matured clones is diluted 1/10 and injected across the “analyte channels” A1-A6. An average off-rate is calculated of the wild type clones present in the plate and served as a reference to calculate off-rate improvements.

T3 sequence (Q9JI71 27-532): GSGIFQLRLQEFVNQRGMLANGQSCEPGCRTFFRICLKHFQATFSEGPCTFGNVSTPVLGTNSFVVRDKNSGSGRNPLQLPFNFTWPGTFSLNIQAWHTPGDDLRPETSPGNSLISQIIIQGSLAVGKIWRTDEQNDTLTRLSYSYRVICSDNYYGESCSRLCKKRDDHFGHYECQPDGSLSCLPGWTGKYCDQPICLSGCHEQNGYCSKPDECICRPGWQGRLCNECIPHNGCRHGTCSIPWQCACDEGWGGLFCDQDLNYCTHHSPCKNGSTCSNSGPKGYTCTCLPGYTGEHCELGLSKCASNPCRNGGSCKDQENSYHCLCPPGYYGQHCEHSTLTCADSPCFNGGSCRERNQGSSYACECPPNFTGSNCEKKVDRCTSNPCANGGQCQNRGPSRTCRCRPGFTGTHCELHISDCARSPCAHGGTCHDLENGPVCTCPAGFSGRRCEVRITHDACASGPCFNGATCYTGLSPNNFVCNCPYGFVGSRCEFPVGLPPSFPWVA

| fold (off-rate improvement over DLLBII101G08) | Binder |
| --- | --- |
| 19 fold | B6 |
| 18 fold | B7 |
| 20 fold | B8 |
| 27 fold | B9 |
| 16 fold | B10 |
| 17 fold | B11 |
| 27 fold | B12 |
| 17 fold | B13 |
| 17 fold | B14 |
| 19 fold | B15 |
| 19 fold | B16 |

Each binder was assayed against T4, recombinant human DLL4 (human, UniProt Q9NR61 25-522) (assay: ProteOn off-rate screen, periplasmic extract, hDLL4 on chip).
T4 construct: R&D Systems C-terminally His-tagged extracellular domain; also called rhDLL4; hDLL4; not shown: C-terminal His tag
Protocol: as §1

T4 sequence (Q9NR61 25-522): as the sequence (Q9NR61 25-522) above

| fold (off-rate improvement over DLLBII101G08) | Binder |
| --- | --- |
| 23 fold | B6 |
| 24 fold | B7 |
| 27 fold | B8 |
| 30 fold | B9 |
| 26 fold | B10 |
| 24 fold | B11 |
| 33 fold | B12 |
| 23 fold | B13 |
| 22 fold | B14 |
| 27 fold | B15 |
| 24 fold | B16 |

What follows are binders tested against T1, human DLL1 (assay: binding ELISA, coated hDLL1).
Protocol: (§2) Absence of binding to homologous ligands human DLL1 and human Jagged-1 is assessed via solid phase binding assay (ELISA). In brief, human DLL1 (Alexis, San Diego, Calif., USA) and human Jagged-1 (Alexis, San Diego, Calif., USA) are coated overnight at 4° C. at 1 μg/mL in a 96-well MaxiSorp plate (Nunc, Wiesbaden, Germany). Wells are blocked with a casein solution (1% in PBS). VHHs are applied as dilution series and binding is detected using a mouse anti-myc (Roche) and an anti-mouse-AP conjugate (Sigma, St. Louis, Mo., USA).

| binding result | Binder |
| --- | --- |
| no binding | B17 |
| no binding | B18 |
| no binding | B19 |
| no binding | B20 |

These binders were tested against T2, recombinant human DLL4 extracellular … (assay: periplasmic extract; hDLL4 ELISA).

| % inhibition | Binder |
| --- | --- |
| 23% | B1 |
| 98% | B21 |
| 84% | B22 |
| 86% | B2 |
| 57% | B23 |
| 98% | B3 |
| 98% | B24 |
| 76% | B4 |
| 98% | B5 |
| 96% | B25 |

These binders were tested against T5, human Jagged-1 (human, UniProt P78504 34-1067, limits assumed) (assay: binding ELISA, coated hJagged-1).
T5 construct: also called hJag-1; hJAG1
Protocol: as §2

| binding result | Binder |
| --- | --- |
| no binding | B17 |
| no binding | B18 |
| no binding | B19 |
| no binding | B20 |
